Source: US11530273B2, “Anti-CD73 monoclonal antibody, encoding nucleic acids and method for producing” (HELMHOLTZ ZENTRUM MÜNCHEN—DEUTSCHES FORSCHUNGSZENTRUM FÜR …, priority 2017, dated 2022)

Tests used:
[1] = molecular target: T1, membrane-bound form of CD73 protein (Homo sapiens, UniProt P21589); experiment: Inhibitory preference: enzymatic activity of membrane-bound CD73; assay type: biochemical; settings: FIG. 10
T1 sequence (P21589 27-549): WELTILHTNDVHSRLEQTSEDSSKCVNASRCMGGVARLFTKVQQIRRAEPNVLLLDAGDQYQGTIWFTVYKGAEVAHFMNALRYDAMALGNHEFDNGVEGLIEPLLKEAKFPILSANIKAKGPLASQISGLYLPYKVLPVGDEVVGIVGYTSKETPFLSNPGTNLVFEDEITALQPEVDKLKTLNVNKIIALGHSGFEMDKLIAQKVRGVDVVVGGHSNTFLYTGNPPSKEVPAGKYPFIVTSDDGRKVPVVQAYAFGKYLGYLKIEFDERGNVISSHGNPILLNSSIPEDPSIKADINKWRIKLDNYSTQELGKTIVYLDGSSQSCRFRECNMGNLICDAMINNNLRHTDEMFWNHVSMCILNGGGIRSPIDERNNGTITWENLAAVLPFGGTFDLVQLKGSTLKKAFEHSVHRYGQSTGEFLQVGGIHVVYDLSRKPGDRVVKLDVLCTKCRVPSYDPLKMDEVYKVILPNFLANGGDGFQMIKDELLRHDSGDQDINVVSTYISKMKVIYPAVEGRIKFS

[2] = molecular target: T2, CD73 protein on cancer cells (Homo sapiens, UniProt P21589); experiment: Flow cytometry (FACS) with 22E6 and anti-rat-IgG fluorophore-labeled secondary mAb on human cancer cell lines; assay type: binding; settings: approx. 30 tested human cancer cell lines, e.g. U138 MG, GBM20, MDA-MB231, T47D
T2 construct: present on the surface of human cancer cells of a total of approx. 30 tested cell lines; endogenous in cells; host or cells: about 30 human cancer cell lines, e.g. U138 MG, GBM20, MDA-MB231, T47D
T2 sequence (P21589 27-549): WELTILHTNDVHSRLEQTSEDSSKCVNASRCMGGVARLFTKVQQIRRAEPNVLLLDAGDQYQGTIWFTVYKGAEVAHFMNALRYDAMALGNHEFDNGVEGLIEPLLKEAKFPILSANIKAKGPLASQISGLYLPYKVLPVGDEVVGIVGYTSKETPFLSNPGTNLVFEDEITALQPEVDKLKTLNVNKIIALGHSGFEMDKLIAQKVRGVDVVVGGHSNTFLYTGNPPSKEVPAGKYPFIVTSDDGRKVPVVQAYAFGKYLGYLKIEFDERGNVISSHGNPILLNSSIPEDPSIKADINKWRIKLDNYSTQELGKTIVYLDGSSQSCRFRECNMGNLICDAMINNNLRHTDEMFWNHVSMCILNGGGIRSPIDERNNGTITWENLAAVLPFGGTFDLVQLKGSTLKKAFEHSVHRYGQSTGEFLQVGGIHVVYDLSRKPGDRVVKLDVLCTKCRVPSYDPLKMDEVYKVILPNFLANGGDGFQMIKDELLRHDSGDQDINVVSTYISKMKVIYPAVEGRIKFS
Experimental: (§1) FIG. 3: mAb 22E6 recognizes CD73 on cancer cells. […] Shown are 4 representative cell lines of a total of approx. 30 tested cell lines. U138 MG and GBM20 are glioblastoma cell lines, MDA-MB231 and T47D are human breast cancer cell lines. (B) Immunoblot with the same cell line, using a commercial CD73 mAb. […] Input=U138 lysate.
(§2) In this example, mAb 22E6 binding affinity was characterized (FIG. 3). […] Using a special flow cytometry technique, a fluorescence-activated cell sorting (FACS) with 22E6 and an anti-rat-IgG-specific, fluorophore-labeled secondary mAb, it was shown that the protein recognized by the 22E6 mAb of the invention is present on the surface of human cancer cells of a total of approx. 30 tested cell lines. U138 MG and GBM20 are glioblastoma cell lines, MDA-MB231 and T47D are human breast cancer cell lines. In order to compare the specificity of mAb 22E6 with the specificity of a commercial CD73 mAb an immunoblot with the same cell lines (U138 MG, GBM20, MDA-MB231 and T47D) was performed using the commercial CD73 mAb as shown in FIG. 3B.

[3] = molecular target: T3, CD73 on cancer derived EVs (Homo sapiens, UniProt P21589); experiment: ADO production by EVs from malignant ascites (inorganic phosphate, malachite green assay); assay type: biochemical; settings: phosphate-free buffer, 1 mM AMP, 60 min, versus isotype mAb
T3 construct: from tissue; host or cells: extracellular vesicles from malignant ascites (ovarian cancer patient)
T3 sequence (P21589 27-549): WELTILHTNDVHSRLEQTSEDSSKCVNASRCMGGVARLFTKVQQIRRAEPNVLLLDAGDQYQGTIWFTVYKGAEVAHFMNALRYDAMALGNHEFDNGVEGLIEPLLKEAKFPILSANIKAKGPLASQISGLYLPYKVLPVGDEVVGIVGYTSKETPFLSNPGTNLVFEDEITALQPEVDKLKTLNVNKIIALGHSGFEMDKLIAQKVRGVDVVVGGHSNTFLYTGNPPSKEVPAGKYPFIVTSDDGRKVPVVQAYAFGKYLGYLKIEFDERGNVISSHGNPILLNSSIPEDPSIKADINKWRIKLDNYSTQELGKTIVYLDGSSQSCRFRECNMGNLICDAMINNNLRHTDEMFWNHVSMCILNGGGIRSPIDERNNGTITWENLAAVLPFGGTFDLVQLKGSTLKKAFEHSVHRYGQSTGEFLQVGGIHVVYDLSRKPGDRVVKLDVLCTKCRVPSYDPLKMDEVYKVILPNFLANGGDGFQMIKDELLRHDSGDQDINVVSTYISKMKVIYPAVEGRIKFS
Experimental: FIG. 9: 22E6 blocks ADO production by EVs from malignant ascites. EVs were incubated in phosphate-free buffer in the presence of 1 mM AMP with APCP, 22E6 or an isotype mAb for 60 min and the concentration of inorganic phosphate (Pi; produced alongside the dephosphorylation of AMP) was quantified with a malachite green assay.
Accordingly, EVs were incubated in phosphate-free buffer in the presence of 1 mM AMP with APCP, 22E6 or an isotype mAb for 60 min and the concentration of inorganic phosphate (Pi; produced alongside the dephosphorylation of AMP) was quantified with a standard malachite green assay. Based on the above it was concluded that 22E6 inhibits CD73 on cancer derived EVs.

[4] = test system: human CLL cells; experiment: ADO generation by human CLL cells; assay type: cell-based
Excerpt: APCP is a CD73 small molecule inhibitor.
(§3) Adenosine 5′-(α,β-methylene)diphosphate (APCP) is a small-molecule specific CD73 inhibitor.

[5] = molecular target: T4, soluble CD73 protein (Homo sapiens, UniProt P21589); experiment: Inhibitory preference: enzyme activity of soluble CD73; assay type: biochemical; settings: FIG. 10
T4 sequence (P21589 27-549 limits assumed): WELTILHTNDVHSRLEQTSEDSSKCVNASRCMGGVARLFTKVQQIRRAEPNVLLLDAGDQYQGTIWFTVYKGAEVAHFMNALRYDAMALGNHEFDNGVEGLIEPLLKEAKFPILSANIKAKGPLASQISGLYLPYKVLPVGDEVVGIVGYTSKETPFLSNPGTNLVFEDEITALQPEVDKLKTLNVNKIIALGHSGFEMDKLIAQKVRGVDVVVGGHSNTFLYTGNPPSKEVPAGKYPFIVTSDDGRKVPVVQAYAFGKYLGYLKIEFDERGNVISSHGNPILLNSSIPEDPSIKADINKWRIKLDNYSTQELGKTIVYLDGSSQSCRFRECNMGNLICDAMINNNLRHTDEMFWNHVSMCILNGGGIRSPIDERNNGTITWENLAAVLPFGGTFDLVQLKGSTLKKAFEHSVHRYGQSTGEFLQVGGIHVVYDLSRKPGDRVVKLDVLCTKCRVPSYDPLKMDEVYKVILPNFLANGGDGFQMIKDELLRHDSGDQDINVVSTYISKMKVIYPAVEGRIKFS

[6] = test system: peripheral blood mononuclear cells; experiment: TNFα release in mixed lymphocyte reactions (ELISA); assay type: cell-based; settings: 5×10^5 PBMCs each from two donors, 22E6 50 μg/ml, 37°, 24 h, versus GSF-mAb
Experimental: 5×10^5 peripheral blood mononuclear cells each from two out of three different donors (A, B, C) were co-incubated in standard cell culture medium at 37° for 24 h with 22E6 (50 μg/ml) or a GSF-mAb (50 μg/ml) and the amount of TNFα was measured with a commercial ELISA assay.
Accordingly, 5×10^5 peripheral blood mononuclear cells (PBMCs) each from two out of three different donors (A, B, C) were co-incubated in standard cell culture medium at 37° for 24 h with 22E6 (50 μg/ml) or a GSF-mAb (50 μg/ml) and the amount of TNFα was measured with a commercial ELISA assay.

[7] = molecular target: T5, CD73 protein (Homo sapiens, UniProt P21589); experiment: Immunoprecipitation of CD73 from U138 glioblastoma cell lysates followed by immunoblot with commercial CD73 mAb; assay type: binding; settings: U138 glioblastoma lysate, versus isotype mAb
T5 construct: immunoprecipitation of the CD73 protein from lysates of U138 glioblastoma cells; endogenous in cells; host or cells: U138 glioblastoma cells (lysate)
T5 sequence (P21589 27-549): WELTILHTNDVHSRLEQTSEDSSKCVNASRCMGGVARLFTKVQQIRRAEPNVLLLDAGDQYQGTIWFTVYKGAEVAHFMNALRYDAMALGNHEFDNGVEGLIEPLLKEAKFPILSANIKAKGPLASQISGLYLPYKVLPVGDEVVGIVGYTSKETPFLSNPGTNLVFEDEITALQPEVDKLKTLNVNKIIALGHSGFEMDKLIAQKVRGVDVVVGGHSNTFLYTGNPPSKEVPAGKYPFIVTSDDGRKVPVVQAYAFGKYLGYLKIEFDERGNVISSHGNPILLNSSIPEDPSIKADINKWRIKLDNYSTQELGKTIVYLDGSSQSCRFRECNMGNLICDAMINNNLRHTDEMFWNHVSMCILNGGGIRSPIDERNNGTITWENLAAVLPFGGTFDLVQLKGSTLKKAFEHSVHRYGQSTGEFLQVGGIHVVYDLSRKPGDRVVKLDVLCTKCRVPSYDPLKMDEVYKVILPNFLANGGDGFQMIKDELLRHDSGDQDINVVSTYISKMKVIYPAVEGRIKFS
Experimental: as §1, §2

[8] = test system: CD73-positive human A375 melanoma cells; experiment: AMP to adenosine conversion by CD73-positive A375 melanoma cells; assay type: cell-based; settings: A375 melanoma cells incubated with AMP for 60 min
Experimental: CD73-positive human A375 melanoma cells were incubate with AMP for 60 min and the concentration of AMP (left) and ADO (right) in the supernatant were measured. APCP is a small-molecule specific CD73 inhibitor.
as §3

[9] = test system: Peripheral blood mononuclear cells (PBMCs); experiment: IFN-γ release by PBMCs (ELISA); assay type: cell-based; settings: PBMCs from two donors incubated separately; 22E6 0.5 μg/ml and 5 μg/ml; 24 h; versus isotyp antibody
Experimental: FIG. 15: Massive release of interferon-gamma (IFN-γ) being induced by mAB 22E6 in comparison to an isotyp antibody. IFN-γ being a marker for the activation of cytotoxic T-cells. Peripheral blood mononuclear cells (PBMCs) from two different donors were incubated separately as indicated at 37° C. for 24 h. Interferon-gamma (IFN-γ) in the supernatant was then quantified by a standard ELISA assay.
Peripheral blood mononuclear cells (PBMCs) from two different donors were incubated separately in standard cell culture medium at 37^0 for 24 h with 22E6 (0.5 μg/ml and 5 μg/ml), APCP (1 μM and 5 μM), isotyp antibody (5 μg/ml), aPD-1 (5 μg/ml) and control (5 μg/ml). The amount of interferon-gamma (IFN-γ) in the supernatant was then measured with a commercial ELISA assay.

recognition of CD73 on the surface of cancer cells [2]: recognizes CD73 protein on cancer cells
specificity for CD73 by immunoprecipitation [7]: demonstrated the specificity of 22E6
B1: 22E6: rat monoclonal anti-CD73 antibody from immunization with GBM20 glioblastoma EVs; VH SEQ ID NO: 9, VL SEQ ID NO: 13 (antibody, listed as Rattus norvegicus, V domains shown)
VH: EVQLVESGGGLVQPGRSMKLSCAASGFTFSFYYMAWVRQAPTKGLEWVASISTGGGNTYYRDSVKGRFTISRDDAKSTLYLQMDSLRSEETATYYCARHGGDYYGYRGGYFDYWDQGVMVTVSS
VL: DIQMTQTPSSMPASLGERVTISCRASQGINNYLNWYQQKPDGTIKPLIYYTSNLQSGVPSRFSGSGSGTDYSLTISSLEPEDFAMYYCQQYDNSPYTFGAGTKLELK
modifications: (1)..(124) VH region; SITE (26)..(32) VH complementary determining region 1 (VH CDR1); SITE (52)..(57) VH complementary determining region 2 (H-CDR2); SITE (99)..(113) VH complementary determining region 3 (H-CDR3); (1)..(107) VL region; SITE (24)..(34) VL complementary determining region 1 (L-CDR1); SITE (50)..(56) VL complementary determining region 2 (L-CDR2); SITE (89)..(97) VL complementary determining region 3 (L-CDR3)
inhibitory preference, membrane-bound versus soluble form of CD73 [1]: inhibitory preference for enzymatic activity of a membrane-bound form of CD73 protein
ADO production by EVs (inorganic phosphate concentration) [3]: blocks ADO production by EVs derived from malignant ascites
ADO generation [4]: inhibits ADO generation by human CLL cells
effect on the enzyme activity of soluble CD73 protein [5]: no or essentially no effect
release of TNFα [6]: increases the release of TNFα
adenosine production (AMP and ADO concentration in supernatant) [8]: blocks adenosine production
release of IFN-γ in the supernatant [9]: increases massive release of IFN-γ
